Test results as given in patent US8598081B2, “Specific delivery of agrochemicals” (priority 2010, dated 2013).
Positions count from the first letter of the chain named.

T1: potato lectin (Solanum tuberosum, UniProt Q9S8M0)
T1 construct: purchased Sigma
T1 sequence (Q9S8M0 whole entry, looked up): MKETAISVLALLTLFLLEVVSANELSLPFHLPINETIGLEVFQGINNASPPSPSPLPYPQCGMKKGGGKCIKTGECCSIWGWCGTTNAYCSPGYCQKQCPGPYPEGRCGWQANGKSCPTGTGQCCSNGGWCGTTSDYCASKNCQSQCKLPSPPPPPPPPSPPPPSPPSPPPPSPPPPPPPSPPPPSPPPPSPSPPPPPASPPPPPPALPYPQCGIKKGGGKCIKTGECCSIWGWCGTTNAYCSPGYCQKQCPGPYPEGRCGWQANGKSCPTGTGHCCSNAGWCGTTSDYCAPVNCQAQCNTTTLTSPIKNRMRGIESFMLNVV

B1: VHH7A2: VHH sequence; SEQ ID NO:26 by order of the list (protein, listed as Lama glama)
VHH: QVQLQESGGGSVHPGGSLTLSCLASGFSLSNYGMGWFRQAPGKEREAVSCTSVPNGHIYYAESVKGRFTIVRDNAGNSVYLQMNSLKPEDAANYFCATTDCEAAHWGTWVNYYGQGTQVTVSS
modifications: 7A2
B2: VHH 5C4: VHH sequence; SEQ ID NO:18 by order of the list (protein, listed as Lama glama)
VHH: QVQLQESGGGLVQPGGSLRLSCAASGFSLRYFGIGWFRQVAGKEREPVSCSNVRDGNTYYADSVKGRFTISRDNVRNTLYLQMNSLKPEDTAVYSCATTDCEATTWGTYRGYFGQGTQVTVSS
modifications: 5C4
B3: VHH 5G5: VHH sequence; SEQ ID NO:24 by order of the list (protein, listed as Lama glama)
VHH: B2 VHH with V40A, P47G, V48I, T78M, S85N, E89D
modifications: 5G5
B4: VHH 7D2: VHH sequence; SEQ ID NO:28 by order of the list (protein, listed as Lama glama)
VHH: QVQLQESGGGLVQPGRSLKVACAAAGFSLRYYGIGWFRQAPGKEREAVSCTSANDGSTYYRDSVRGRFTISRDDGKNTVYLQMNRLKPEDTAVYYCATTDCDATSWGTWINYYGQGTQVTVSS
modifications: 7D2
B5: VHH5F5: VHH sequence; SEQ ID NO:22 by order of the list (protein, listed as Lama glama)
VHH: QVQLQESGGGLVQPGGSLRLSCAASGFPLGLYGIGWFRQAPGKEREAVSCDSVDDGSTNYLDSVKGRFTISRDNAKNMVYLQMNSLKPEDTAVYYCATTDCDAKAWGTWTNYRGQGTQVTVSS
modifications: 5F5
B6: VHH5E5: VHH sequence; SEQ ID NO:21 by order of the list (protein, listed as Lama glama)
VHH: QVQLQESGGGLVQPGGSLTLSCTASGFAMRRFGIGWFRQVVGKEREGVSCSNVHDGSTYYANYVKGRFTIVRDDTKNMLYLHMNSLRAEDTGVYSCATTDCEATAWGTYRGYFGQGTQVTVSS
modifications: 5E5
B7: Bivalent VHH 3E6: Uvitex-containing microcapsules coupled with bivalent VHH, a fusion of two VHH with a 9 glycine-serine linker (conjugate)
chain: QVQLQESGGGLVQPGGTLSLSCAASGFNVRWYGMGWFRQAPGKEREGVACISALQETTAYADSVKGRFTLSRDNPKNTLSLQMNNLQPEDTGVYYCATTDCDDSSRMTYTSYLGQGTQVTVSSGGGGSGGGSQVQLQESGGGLVQPGGTLSLSCAASGFNVRWYGMGWFRQAPGKEREGVACISALQETTAYADSVKGRFTLSRDNPKNTLSLQMNNLQPEDTGVYYCATTDCDDSSRMTYTSYLGQGTQVTVSSAAAEQKLISEEDLNGAAHHHHHH
B8: VHH7C2: VHH sequence; SEQ ID NO:27 by order of the list (protein, listed as Lama glama)
VHH: QVQLQESGGGLVQPGGSLRLSCAAFGFALANYGIGWFRQAPGKDRERVSCDSVDDGSTHYSNSVQGRFTIIRDNAKNTVFLQMNSLKAEDTAVYYCATTDCDATTWGTWINYRGQGTQVTVSS
modifications: 7C2

Key:
[1] = test system: gum arabic; test: VHH binding to gum arabic in ELISA; design: species or system acacia tree
Description: Titration of VHH antibody fragments was performed on ELISA plates (Maxisorp, Nunc) coated with 100 μl per well 100 μg/ml gum arabic in 50 mM carbonate pH 9.6. Plates were coated at 4° C. overnight and coating was continued at room temperature for 1 hour on the next day. Plates were washed three times with PBS/0.05%-TWEEN®-20 and blocked with 5% skimmed milk in PBS for 1 hour. Four-fold serial dilutions of purified VHH antibody fragments were prepared in 1% MPBS/0.05%-TWEEN®-20 in polypropylene 96-well plates. Antibody concentrations ranged from 3 μg/ml to 12 ng/ml. Antibody dilutions were transferred to the gum arabic-coated plates and VHH antibody fragments were allowed to bind for 1 hour at room temperature. Bound VHH were detected with sequential incubations with monoclonal mouse anti-histidine antibodies (Abd Serotec) and rabbit anti-mouse IgG whole molecule antibodies conjugated with alkaline phosphatase (RaM/AP) (Sigma) in 1% MPBS/0.05%-TWEEN®-20. Unbound antibodies were removed by washing three times with PBS/0.05%-TWEEN®-20 after each antibody incubation. The plates were washed an additional two times with PBS and 100 μl pNPP disodium hexahydrate substrate (Sigma) was added to each well. The absorbance at 405 nm was measured and plotted as function of antibody concentration (see Table 1).

[2] = target: T1, potato lectin; test: VHH binding to potato lectin in ELISA; settings: Table 2; Blank (no antigen coating); VHH 3 μg/ml
Description: ELISA plates (Maxisorp, Nunc) coated with 100 μl per well 100 μg/ml potato lectin (Sigma) in PBS were coated at 4° C. overnight and coating was continued at room temperature for 1 hour on the next day. Plates were washed three times with PBS/0.05%-TWEEN®-20 and blocked with 5% skimmed milk in PBS for 1 hour. VHH (3 μg/ml) were transferred to the potato lectin-coated plates and VHH antibody fragments were allowed to bind for 1 hour at room temperature. Bound VHH were detected with sequential incubations with monoclonal mouse anti-histidine antibodies (Abd Serotec) and rabbit anti-mouse IgG whole molecule antibodies conjugated with alkaline phosphatase (RaM/AP) (Sigma) in 1% MPBS/0.05%-TWEEN®-20. Unbound antibodies were removed by washing three times with PBS/0.05%-TWEEN®-20 after each antibody incubation. The plates were washed an additional two times with PBS and 100 μl pNPP disodium hexahydrate substrate (Sigma) was added to each well and the absorbance at 405 nm was measured (see Table 2).

[3] = ELISA-like assay, microcapsules with monovalent or bivalent VHH, unrelated antigen; format: binding; design: unit not given beside the values; settings: Uvitex microcapsules
Description: (§1) Bivalent VHH constructs were produced in bacteria by cloning two VHH sequences in tandem into the pASF22 vector, creating a fusion of two VHH with a 9 glycine-serine linker (GGGGSGGGS (SEQ ID NO:50)) in between the two VHH. pASF22 is an in-house produced pMES derivative. The tags that were used were C-terminal c-Myc (EQKLISEEDLN (SEQ ID NO:51)) and hexahistidine (HHHHHH (SEQ ID NO:52)). A triple alanine linker (AAA) was placed in between the C-terminal end of the VHH and the c-Myc tag and a glycine-alanine-alanine (GAA) linker was used in between the C-terminal end of the c-Myc tag and the hexahistidine tag. The complete sequence C-terminal of the bivalent VHH that was used: AAA-EQKLISEEDLN-GAA-HHHHHH (SEQ ID NO:53). Fresh overnight cultures were produced by starting from colony streaks and inoculation of 2×TY media supplemented with 2% glucose and 100 μg/ml ampicillin. The overnight cultures were used to inoculate fresh cultures 1:100 in 2×TY media with 0.1% glucose and 100 μg/ml ampicillin. After growing at 37° C. in a shaking incubator for 3 hours, IPTG was added to a 1 mM final concentration and recombinant bivalent VHH were produced during an additional incubation for 4 hours. Cells were spun down and resuspended in 1/50th of the original culture volume of PBS and incubated with head-over-head rotation at 4° C. for 30 minutes. Spheroplasts were spun down by centrifugation at 3,000 g and 4° C. for 20 minutes. Supernatants were transferred to fresh tubes and centrifuged again at 3,000 g and 4° C. for 20 minutes. The supernatant was collected and sodium chloride concentration was adjusted to 500 mM and imidazole concentration to 20 mM. Hexahistidine-tagged bivalent VHH were purified from the extracts using HisTrap FF Crude 5 ml IMAC columns (GE Lifesciences) and HiLoad 16/60 Superdex 75 prep grade gel filtration column (GE Lifesciences) on an AKTAxpress system (GE Lifesciences) following standard procedures.
(§2) Next, it was investigated if binding of microcapsules to surfaces could be improved by using targeting agents comprising multivalent VHH. A series of parallel couplings was performed with equal amounts of monovalent VHH, bivalent VHH, and unrelated VHH. Success of coupling of VHH and multivalent VHH were analyzed as described in Example 4. An ELISA-like assay was performed using high bind half area microplates (Greiner Bio-One) coated with 5 μg/well potato lectin. Control wells included blank wells or wells coated with unrelated antigens. Plates were washed three times with PBS with 0.05%-TWEEN®-20 and blocked with 5% skimmed milk in PBS for 1 to 2 hours. VHH-coupled Uvitex-containing microcapsules were diluted to appropriate densities in 1% skimmed milk in PBS with 0.05%-TWEEN®-20. Five-fold serial dilution series were prepared and allowed to bind to the surface to compare binding of microcapsules coupled with monovalent or bivalent VHH. Microcapsules were added to the antigen-coated or control wells and allowed to bind for 1 hour. Unbound microcapsules were removed by washing five times with PBS with 0.05%-TWEEN®-20. The bottoms of ELISA plate wells were analyzed for bound microcapsules on a macrozoom microscope system (Nikon). Microcapsules were counted using Volocity image analysis software (Perkin Elmer). A DAPI filter was used to visualize Uvitex microcapsules. […] The surface area of microcapsules with coupled bivalent VHH was 15-fold above the surface area of blank microcapsules applied at this microcapsule density while the surface area of microcapsules with monovalent VHH was only six-fold above the surface area of blank microcapsules applied at this microcapsule density. This difference could be explained by an increase in binding strength due to additional avidity of the bivalent VHH compared to monovalent VHH, it could also be that the use of bivalent VHH increases flexibility and spacer length of the coupled targeting agents on microcapsules, or a combination of both.

[4] = target: T1, potato lectin; test: ELISA-like assay, microcapsules with monovalent or bivalent VHH, potato lectin; format: binding; design: Surface area of bound microcapsules: unit not given here
Description: as §1, §2

[5] = [VHH] 3 μg/ml (200 nM), gum arabic − (well without gum arabic)
[6] = Table 2, gum arabic coating, VHH 3 μg/ml

Molecule	absorbance at 405 nm [1, 5]	absorbance at 405 nm [2]	absorbance at 405 nm [1, 6]	also measured
B1	0.075			
B2	0.082	0.071	0.873	
B3	0.077	0.073	0.751	
B4	0.074	0.072	0.274	
B5	0.090			
B6	0.073			
B7				Surface area of bound microcapsules ([3]; no coating (second series, with unrelated antigen rows), surface coverage 100%): 55.841; Surface area of bound microcapsules ([3]; unrelated antigen, surface coverage 20%): 22.114; Surface area of bound microcapsules ([3]; unrelated antigen, surface coverage 100%): 45.677; more microcapsules retained in the well compared to microcapsules with monovalent VHH ([4]; application of 25-fold less microcapsules, potato lectin): 160%; more microcapsules retained in the well compared to microcapsules with monovalent VHH ([4]; highest density of microcapsules applied (fully cover the bottom of the well), potato lectin): 17%; Surface area of bound microcapsules ([4]; no coating (first series, with potato lectin rows), surface coverage 100%, Uvitex microcapsules): 66.176; binding to antigen-coated surface when coupled to a microcapsule ([4]; potato lectin 5 μg/well, Uvitex microcapsules): capable of binding specifically; Surface area of bound microcapsules ([4]; potato lectin, surface coverage 4%, Uvitex microcapsules): 155.759; Surface area of bound microcapsules ([4]; potato lectin, surface coverage 20%, Uvitex microcapsules): 511.303; Surface area of bound microcapsules ([4]; potato lectin, surface coverage 100%, Uvitex microcapsules): 490.546
B8	0.077			
